Holding throughout (test): EMSA
One experiment addresses Sox2 HMG (79-aa protein). Conditions: Sox2-Oct heterodimer on SoxOct DNA element CCATGGACATTGTAATGCAAAAGAAGCTG, n = 3-13, read off a plot.
A further experiment deals with Oct4^151M POU domain. Conditions: homodimer on MORE (OctOct) DNA element TCCTCATGAATATTCATGAGGA; n = 3-13; parent: est. 7; read off a plot.
For the next experiment, the target named is Oct6^151S POU domain. Particulars: homodimer on MORE (OctOct) DNA element TCCTCATGAATATTCATGAGGA; n = 3-13; parent: est. 160; read off a plot.

As for Oct4 POU domain S151M, the other: cooperativity factor in the experiment with Sox2 HMG (79-aa protein) (parent: est. 12) stood at 29; with Oct4^151M POU domain it was 140.

Turning to Oct6 POU domain M151S, the other: cooperativity factor with Oct6^151S POU domain came to 4; in the experiment with Sox2 HMG (79-aa protein) (parent: est. 4.5) it was 2.5.

The values above are taken from paper PMC5286379.
